This is an account of results in PMC5314774 (Nucleic Acids Research, 2016).

In test [1] the target is T1, LAGE3 (bacterial, 6xHIS-GST removed) (human, UniProt Q14657 1-143).
T1 sequence: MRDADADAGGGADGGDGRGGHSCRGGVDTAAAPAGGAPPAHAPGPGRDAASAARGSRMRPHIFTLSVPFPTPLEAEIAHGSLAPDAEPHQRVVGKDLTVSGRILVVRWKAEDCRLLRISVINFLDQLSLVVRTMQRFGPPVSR
Put plainly: SEC. (In general: SEC sorts molecules by how far they enter the pores of the column.)

Test [2] has as its target 4-subunit KEOPS complex (OSGEP, PRPK, TPRKB and LAGE3) (human, UniProt Q9NPF4;Q96S44;Q9Y3C4;Q14657). Put plainly: SEC-MALS.

B1: C14ORF142 (bacterial, GST removed) (natural protein)
chain: MELLGEYVGQEGKPQKLRVSCEAPGDGDPFQGLLSGVAQMKDMVTELFDPLVQGEVQHRVAAAPDEDLDGDDEDDAEDENNIDNRTNFDGPSAKRPKTPS
Take B1: in test [1], the stoichiometry N (as a rule, the number of molecules, sites or subunits per partner or assembly) amounted to 1.

B2: C14ORF142 (insect cells, polycistronic KEOPS vector) (natural protein)
chain: B1 chain
For B2, the “stoichiometry N” value in test [2] is 1.
